Measurements: paper doi:10.1101/2020.12.07.415216

Key:
[1] = target: SARS-CoV RBD homotrimer (RBD appended onto a cystine-stabilized, hyperglycosylated GCN4 trimerization tag) (SARS-CoV) (UniProt P59594); test: SDS-PAGE under non-reducing conditions
[2] = target: WIV1-CoV RBD homotrimer (RBD appended onto a cystine-stabilized, hyperglycosylated GCN4 trimerization tag) (WIV1-CoV); test: SDS-PAGE under non-reducing conditions

Substance | stoichiometry N [1] | stoichiometry N [2]
SARS-CoV RBD homotrimer (RBD appended onto a cystine-stabilized, hyperglycosylated GCN4 trimerization tag) (from UniProt P59594) | 3 | 
WIV1-CoV RBD homotrimer (RBD appended onto a cystine-stabilized, hyperglycosylated GCN4 trimerization tag) |  | 3
